# In publication PMC6351562, “Structure, function, and inhibition of drug reactivating human gut microbial β-glucuronidases” (Scientific Reports, 2019):
# Where “and” joins values, the source holds several entries; their conditions need not be identical. Identical values can stand only once. Marks after values point to notes of the source that are not given here.
# B1: Streptococcus agalactiae GUS (SaGUS) (Streptococcus agalactiae 2603V/R) (protein)
# chain: MLYPLLTKTRNTYDLGGIWNFKLGEHNPNELLPSDEVMVIPTSFNDLMVSKEKRDYIGDFWYEKVIEVPKVSEDEEMVLRFGSVTHQAKIYVDGVLVGEHKGGFTPFEVLVPECKYNNEKIKVSICANNVLDYTTLPVGNYSEIIQEDGSIKKKVRENFDFFNYAGVHRPLKLMIRPKNHIFDITITSRLSDDLQSADLHFLVETNQKVDEVRISVFDEDNKLVGETKDSRLFLSDVHLWEVLNAYLYTARVEIFVDNQLQDVYEENFGLREIEVTNGQFLLNRKPIYFKGFGKHEDTFINGRGLNEAANLMDLNLLKDMGANSFRTSHYPYSEEMMRLADRMGVLVIDEVPAVGLFQNFNASLDLSPKDNGTWNLMQTKAAHEQAIQELVKRDKNHPSVVMWVVANEPASHEAGAHDYFEPLVKLYKDLDPQKRPVTLVNILMATPDRDQVMDLVDVVCLNRYYGWYVDHGDLTNAEVGIRKELLEWQDKFPDKPIIITEYGADTLPGLHSTWNIPYTEEFQCDFYEMSHRVFDGIPNLVGEQVWNFADFETNLMILRVQGNHKGLFSRNRQPKQVVKEFKKRWMTIPHYHNKKNSVK
# B2: Faecalibacterium prausnitzii GUS (FpGUS) (Faecalibacterium duncaniae) (protein)
# chain: MNRSLLYPRATTTRRLIGLDGMWRFSFDPESKGVEAGWALDLPSSLSMPVPASFCDLFTDKASREYCGDFWYETSFFVPAEWSGWDIVLRFGSVTHRARVFVNGVEVAQHEGGFLPFDATVTNIVRYNQFNKLSVLANNELSETMLPAGTTCTLADGRKIAAPYFDFYNYAGIHRPVWLMALPKERVLDYSTRYRLTETGAEIDYTVSTNGPHPVTVELYDGTTRVAESSGTTGTLVVKNARLWNVHAAYLYDLVIRIHEGSAVVDEYLDRIGIRTFEIRHGRFLLNGSPVYLRGFGRHEDADIRGRGLDLPTVKRDFELMKWIGANCFRTSHYPYAEEIYQMADEEGFLIIDEVPAVGFMQSTANFLAANQGNGRQQGFFEKETTPALLKNHKAALTDMIDRDKNHPSVIAWSLLNEPQCTSAGTEEYFKPLFELARRLDPQKRPRTYTVLMTSLPDTSKGQRFADFVSLNRYYGWYVLGGAGLADAEAAFHHEMDGWAKVLHGRPLIFTEYGTDNLSGAHKLPSVMWSAEYQNEYLEMTHAVFDHYDFVQGELVWNFADFQTTEGILRVDGNKKGIFTRQRQPKDAAYLFRKRWTTLPVDFKKRKK
# B3: Bacteroides dorei GUS (BdGUS) (Phocaeicola dorei CL02T12C06) (protein)
# chain: SEISITDSWKYKAENDERFSSMDWNDSDWVTVDLPHTWNAGDVIDEQRGYRRGISWYRKKLFIPSEARDKKITLRFDGVASKADVYLNGKLLKTHLGAYTAFGVDITDICEVGKENLLAVKVDNSSSLGEILPPVSGDFSIFGGIYRRVFLQWTEKVHFVTEPYAAVPVRIQTPEVSVSEASMQIVAFLKNDFTDTKHVHVNVFLCDEMNRIVKEKQLKLKLIPGRKYPISTSVGRIENPHLWSPELPYLYTVKVQVCDAKNGEMYQEVISPVGFRWFSVDKTGFYLNGKYLKLRGAARHQDYAGLGTAIPVEMNRRDMRLLKEMGANFVRISHYPQDPEIYRACDELGLIVWSEICVVNEVRKNAAFAHNCKEMLKEMILQNYNHPSVVLWGAMNELWDYHKQAIALARELEALKKELDPYRLSCVAFHAFTWEKPYTQSSKEMFSISDVNGVNVYESWYQGDSATIAPMFDKFCSYSTAKPRFLSEFGAGSDERIHSYTPRTFDFTPEFQLDFNRRYINEMEKRPDYIGYSIWNLVDFQVDGRGDSKPNLNQKGMLTEDRRKKEIYYYCQARWSDIPMIHIAGADWTKRVEICDDSINVRKISVFSNQKTVELIHNGKSLGVREVVNGEAVFAVPFINGENLLDARSGALSDRLKIQMKLLSSRLTDSDVLLDGLCINLGQEHCYFIDPQLQEIWIPDKPYTKGSWGYMDGKPFNSWPGSSHDGVRYGVGADIKNTFLEPLFQTFLIGTTCYRLDVPDGVYEIGFYFTEPFSKDERKNIVRTGVSAEGQRVFDVSVNGEKLIDSLNLADSYGEQTAVVKTLVVNVRNHEGLEILLSPQKGQGVISGLKVKKIR
# B4: Eubacterium eligens GUS (EeGUS) (Lachnospira eligens ATCC 27750) (protein)
# chain: MLYPVLTQSRLLSDLSGVWDFKLDNGKGFEEKWYEKPLKDADTMPVPASYNDLKEGTDFRDHYGWVFYQRNISVPEYVKSQRIVLRCAAVTHYAMIYLNGKLICEHKGGFLPFEVELNDDLQDGDNLLTIAVNNVIDYTTLPVGGKANMMSGMMGGMGAGASDKPQNNPNFDFFNYCGITRPVKIYTTPETYINDITVTADIDFTKEEPSAVLNYNVEIKGKDYNNITCKVELFDEEGTKLSETEGSEGTFEISNVRLWQPLNAYLYKIKVTAGQDVYTLPYGVRSVRVDGTKFLINEKPFYFKGYGKHEDTFPNGRGINLPMNTKDISIMKWQHANSFRTSHYPYSEEMMRLCDEEGIVVIDETTAVGVNLQFGGGANFGGERIGTFDKEHGVQTQEHHKDVIRDLISRDKNHACVVMWSIANEPDSAAEGAYDYFKPLYDLARELDPQKRPCTLVSVQGTTADTDCSSQLSDVICLNRYYGWYFGGPDLEVSEIGLRKELSDWGKLGKPVMFTEYGADTVSGLHDTTSVMYTEEYQVEYYEMNNKVFDEFDFVVGEQAWNFADFATSQSLLRVQGNKKGLFTRDRKPKMVAHYFRNRWSTIPEFGYKTK
# B5: Bacteroides uniformis GUS (BuGUS) (Bacteroides uniformis str. 3978 T3 ii) (protein)
# chain: QRQTQTINDSWKFLKGECTAAADSAFDDSKWTSIHLPHTWNTDAYTEKDYYRGTGWYRRQLTLPQGWKEKQIILRLDAAGKSATIYINGKNVGEHAGGYTACSFNITPFLSFDTPNTLAVCVDNARQDIAPISGDFTFFGGIYRDVWLTAVPNQHFNLTNHGSDGLFISTPQVSEEQATLSIRGEVKNDAPEKATLELTHTIYRPDGTLLQTLKKNIQLKAGETYAFSNEATPVLKPELWTPETPRLYRVETTLRNRKTKTLLDQSNHYTAFRWFRFDGDEGFFLNGKPYKLRGICRHQDQKPIGPALTDEMHRRDFLLMKEMGANFIRISHYPQDDALLEMCDKLGMLAWEEIPIIDIVPNTPGYGDNCERNLREMIRQHYNHPSIITWGYMNEILLVTQRKYKTEAELKPVLERTLALANRLERVLKEEDSTRISTMAFHGSNSYNETGLSKITDIVGWNLYQGWYGGDLTGFEKFLAQQHQNHPTHPMIVSEYGAGSDKRLHSLHPRAFDFSIEYQQKYLEHYLPVLEDTPYICGGTHWNFIDFSSALRDESMPRINNKGLVYADRTPKDVYHYYQAAWRKDIPVLHIASRDWTDRAGVQQGNAPVYLPVKIYTNLSEVELFIDGISLGKQKTENYTATFEVPFSNRNPFLFAQGNYQGKTVQDGLRINFTPIPACLDANNLKGLELAVNVGSQCFFTSDESQLTWLPDQPYAAGSWGYIGGKEGTAQTEIQNTADGPLFQTLRNEIEGYRFDAPQGVYEIELLFTDIFRRNAGIAYQLDRNGQQENRESTFGISINGEVVEESLSPCKESGYFRALRKKYYITNDKEYIDIRFHSTSGTCFLNGIKLRNIY
# B6: Lactobacillus rhamnosus GUS (LrGUS) (Lacticaseibacillus rhamnosus) (protein)
# chain: METSLLYPVTNDQRTDQKLDGLWQFKFDEAGEGEKSGWETGFHDGVSMPVPASFNDFFTDKASREYTGDFWYSRNFFVPSAAKGKALFLRFDAVTHRATIFVNGKEIRTHEGGFLPFAADISEAVKYGAENTVVVKGNNELSREALPAGDTITLRNGKKMVRPFFDFYNYSGLNRSVHLLSLPQERVLDYTTTFALAGNDATVNYTVETNGDAPVTVSLADADGQVVATAQGKQGALQVQNAHLWQVRNAYLYTLTIQLGDDTQTPLDTYTDRIGIRTIKISGTDILVNDKPIYLKGFGRHEDSPFAGRAFDLNVEKKDFALMKWIGANSFRTSHYPYDEQVYKIADEEGFLLTDEVPAVGFKMAAAAFLGGLNQSFFKGPWLKKLHERHIDQIRDLIKRDKNHPSVLAWSLFNEPDTIDENAVPYFKQIFDESKDLDPQGRPRTFTLSEDDTIETSKVLDFPDFYMLNRYPGWYHFGGYQISDGEAGLRDEMDKWQKAGVKKPVVFTEFGADTEAGLHKLPSVMWTEEYQVEVLKMFSRVFDDYDFIKGEQVWNLADFQTVEGNMRVNGNKKGIFTRDRQPKAAAFFYHDRWNKLPLDYKAK
# B7: Ruminococcus gnavus GUS (RgGUS) (Mediterraneibacter gnavus) (protein)
# chain: MLEYSELYPIQNGHRMMQSLDGMWKFQFDPEEIGEKSGWENGLPAPVSMPVPSSFADFFTDHKERDYCGDFWYETEFYLPAEWRNKKIWLRFGSITHRGTVYCNGMEITSHEGGFLPVLADISTVAKPGQVNQVVVKINNELNETSLPCGATKILNNGRKLAKPYFDFFNYSGLQRSVWVIALPEESVKDYSVDYELCGTDALVKYEVVTTGEHPVIVRLLDAEGELVAETEGKEGILQVANAHLWEVRNAYLYQIVILITDGNGVLDEYREKIGIRTVRIEGTQILLNDRPVYLKGFGKHEDFSILGRGFHWGIVKRDFECLKWTNANCFRTSHYPYAEEWYQFADEEGFLIIDEVPAVGMMRSTRNFVAAGSGNYTYFFEALTVPELLKSHIADTEEMITRDKNHPSVIAWSLFNEPETITDYAYEYFKEVFAAAETYDFQSRPMTGAFEKNSKPELCKCYPLCDFICLNRYYGWYISGGPEIEEAEELFRDEMDRWKAKELNVPFVFTEFGTDTMAGLHKLPSIMWSEEYQKEYLEMNFRVFDSYEFVQGELAWNFADFQTTEGIMRVDGNHKGVFTRDRQPKAAAVVFKDRWEKKNELF
# Columns and labels:
# [1] = substrate: O=C(O)[C@H]1O[C@@H](Oc2ccc([N+](=O)[O-])cc2)[C@H](O)[C@@H](O)[C@@H]1O; assay: purified protein, by the assay type; conditions: other: pNPG as substrate
# [2] = substrate: O=C(O)[C@H]1O[C@@H](Oc2ccc([N+](=O)[O-])cc2)[C@H](O)[C@@H](O)[C@@H]1O; assay: purified protein, by the assay type; type: biochemical, Ruminococcus gnavus; conditions: other: pNPG as substrate, optimal pH 6.5, apparent value estimated at low pNPG concentrations, 37.0 °C
protein,measurement,setting,value
B1,Km,"[1]; optimal pH 6.5, 37 °C",170 ± 10 µM
same,kcat,"[1]; optimal pH 6.5, 37 °C",120 s⁻¹ and 122 s⁻¹
same,kcat/Km,"[1]; optimal pH 6.5, 37 °C",720000 ± 30000 M⁻¹ s⁻¹
B2,Km,"[1]; optimal pH 6.0, 37 °C",2200 ± 300 µM
same,kcat,"[1]; optimal pH 6.0, 37 °C",58 ± 4 s⁻¹
same,kcat/Km,"[1]; optimal pH 6.0, 37 °C",27000 ± 2000 M⁻¹ s⁻¹
B3,Km,"[1]; optimal pH 6.0, 37 °C",1400 ± 100 µM
same,kcat,"[1]; optimal pH 6.0, 37 °C",7.5 ± 0.4 s⁻¹
same,kcat/Km,"[1]; optimal pH 6.0, 37 °C",5200 ± 500 M⁻¹ s⁻¹
B4,Km,"[1]; optimal pH 6.5, 37 °C",223 ± 8 µM
same,kcat,"[1]; optimal pH 6.5, 37 °C",120 ± 8 s⁻¹
same,kcat/Km,"[1]; optimal pH 6.5, 37 °C",540000 ± 20000 M⁻¹ s⁻¹
B5,Km,"[1]; optimal pH 5.5, 37 °C",540 ± 60 µM
same,kcat,"[1]; optimal pH 5.5, 37 °C",37 ± 2 s⁻¹
same,kcat/Km,"[1]; optimal pH 5.5, 37 °C",71000 ± 6000 M⁻¹ s⁻¹
B6,Km,"[1]; optimal pH 4.5, 37 °C",1500 ± 100 µM
same,kcat,"[1]; optimal pH 4.5, 37 °C",10 ± 0.7 s⁻¹
same,kcat/Km,"[1]; optimal pH 4.5, 37 °C",6700 ± 300 M⁻¹ s⁻¹
B7,Km,[2],1.4 ± 0.2^b mM
same,kcat,[2],2.8 ± 0.3 s⁻¹
same,kcat/Km,[2],2000 ± 100 M⁻¹ s⁻¹
